The values below come from US20090104204A1 (CRUCELL HOLLAND B V, published 2009).

Test [1] concerns the target T1, bovine serum albumin (bovine, UniProt P02769 25-607).
T1 construct: Negative control antigen in the non-specific reactivity ELISA; also called BSA; BSA (1%)
Put plainly: ELISA, phage antibody on coated 1% BSA, anti-M13 peroxidase, OD 492 nm. Here is the method:
(§1) To test for non-specific reactivity against non-bacterial antigens an ELISA assay was used. The complex antigens 5% FBS, 2% ELK and 1% BSA were coated overnight to Maxisorp™ ELISA plates. Selected single-chain phage antibodies were incubated for 15 minutes in an equal volume of PBS containing 1% BSA to obtain blocked phage antibodies. The plates were emptied, and the blocked single-chain phage antibodies were added to the wells. Incubation was allowed to proceed for two hours at room temperature, the plates were washed in PBS containing 0.1% v/v Tween-20 and bound phage antibodies were detected by means of OD 492 nm measurement using an anti-M13 antibody conjugated to peroxidase. As a control, the procedure was performed simultaneously without single-chain phage antibody, with a negative control single-chain phage antibody directed against West Nile virus envelope protein (SC04-374).
For orientation: In an ELISA, binding on a coated surface is turned into a signal by an enzyme label.

Test [2] addresses T1, bovine serum albumin. Put plainly: ELISA, phage antibody on coated 1% BSA, anti-M13 peroxidase. The protocol: as §1

T1 sequence (P02769 25-607 limits assumed): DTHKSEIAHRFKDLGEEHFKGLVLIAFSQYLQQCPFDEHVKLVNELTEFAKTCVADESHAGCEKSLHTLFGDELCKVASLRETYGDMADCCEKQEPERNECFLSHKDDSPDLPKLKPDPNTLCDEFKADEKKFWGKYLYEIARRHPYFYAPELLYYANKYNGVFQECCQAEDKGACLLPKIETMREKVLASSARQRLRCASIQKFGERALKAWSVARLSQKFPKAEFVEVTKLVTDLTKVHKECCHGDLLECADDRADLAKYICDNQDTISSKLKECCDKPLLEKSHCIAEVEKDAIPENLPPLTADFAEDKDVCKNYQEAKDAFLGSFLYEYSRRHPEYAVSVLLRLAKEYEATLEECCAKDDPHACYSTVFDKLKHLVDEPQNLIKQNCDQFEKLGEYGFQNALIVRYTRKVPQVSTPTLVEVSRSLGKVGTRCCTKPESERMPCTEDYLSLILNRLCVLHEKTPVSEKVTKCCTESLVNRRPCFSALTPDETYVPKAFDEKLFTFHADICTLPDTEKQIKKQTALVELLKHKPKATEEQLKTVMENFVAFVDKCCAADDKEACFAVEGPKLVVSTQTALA

B1: single-chain phage antibody SC02-430 (scFv)
scFv: QVQLQESGPGLVKPSQTLSLTCTVSGGSISSGGYYWSWIRQPPGKGLEWIGYIYYSGSTYYNSSLKSRVTISVDTSKNQFSLKLSSVTAADTAVYYCAKTVMNSFFDWGQGTLVTVSSGGGGSGGGGSGGGGSEIELTQPPSVSGSPGQSITISCTGTSSDVGSYNLVSWYQQHPGKAPKLMIYEVSKRPSGVSNRFSGSKSGNTASLTISGLQAEDEADYYCCSYAGSSWVFGGGTKLTVL
notes: Selected from the semi-synthetic library JK1994 on S. aureus strain Cowan; also called scFv SC02-430
Regarding B1, the binding result with bovine serum albumin [1] is recorded as “no binding”. The “ELISA (OD492 nm)” value with bovine serum albumin [2] worked out at 0.04 OD492 nm.

B2: single-chain phage antibody SC05-133 (scFv)
scFv: EVQLVETGGGLVKPGGSLRLSCSASRFSFRDYYMTWIRQAPGKGPEWVSHISGSGSTIYYADSVRGRFTISRDNAKSSLYLQMDSLQADDTAVYYCARGGRATSYYWVHWGPGTLVTVSSGTGGSGGTGSGTGGSTEIVLTQSPATLSLSPGERATLSCRASQSVSGYLGWYQQKPGQAPRLLIYGASSRATGIPDRFSGSGSGTDFTLTISRLEPEDFAVYYCQQYGSSPLTFGGGTKLEIKR
notes: also called scFv SC05-133
In the case of B2, the binding result with bovine serum albumin [1] is “no binding”. In addition, the “ELISA (OD492 nm)” value with bovine serum albumin [2] amounted to 0.04 OD492 nm.
